The source of these data is patent US20250277013A1 (published 2025).

Test [1] concerns the target T1, Protein Tyrosine Phosphatase Receptor Type Z1 (PTPRZ1) peptide on HLA-A*02:01 (human).
T1 peptide: MIWEHNVEV
The experiment in a line: multimer staining.

For test [2], the target named is T2, Neuroligin-4, X-linked (NLGN4X) peptide on HLA-A*02:01 (human).
T2 peptide: NLDTLMTYV
Kind of test: multimer staining.

B1: PTPRZ1(1814-1822)-specific TCR (TCR, V domains shown)
Valpha: AQSVTQLDSQVPVFEEAPVELRCNYSSSVSVYLFWYVQYPNQGLQLLLKYLSGSTLVKGINGFEAEFNKSQTSFHLRKPSVHISDTAEYFCAVSDRGAGNMLTFGGGTRLMVKP
Vbeta: GAGVSQSPSNKVTEKGKDVELRCDPISGHTALYWYRQSLGQGLEFLIYFQGNSAPDKSGLPSDRFSAERTGGSVSTLTIQRTQQEDSAVYLCASSLGLAGGLAGELFFGEGSRLTVL
As for B1, in test [1], the binding result is reported as “recognises”.

B2: NLGN4X(131-139)-specific TCR (TCR, V domains shown)
Valpha: RKEVEQDPGPFNVPEGATVAFNCTYSNSASQSFFWYRQDCRKEPKLLMSVYSSGNEDGRFTAQLNRASQYISLLIRDSKLSDSATYLCVVTDSGNTGKLIFGQGTTLQVKP
Vbeta: GAVVSQHPSWVICKSGTSVKIECRSLDFQATTMFWYRQFPKQSLMLMATSNEGSKATYEQGVEKDKFLINHASLTLSTLTVTSAHPEDSSFYICSARVDYNEQFFGPGTRLTVL
Take B2: the binding result in test [2] is on record as “recognises”.
